# Values of other authors in PMC3433420.
# Read-outs that look alike come from different tables or passages of the source.
# Assays:
# Settings in all cases: cited from earlier work
# SYK-NC (Homo sapiens) [1] = target: SYK-NC (Homo sapiens) (UniProt P43405)
# GRB7 (Homo sapiens) [2] = target: GRB7 (Homo sapiens) (UniProt Q14451)
# SLA (Homo sapiens) [3] = target: SLA (Homo sapiens) (UniProt Q13239)
# BLK (Homo sapiens) = BLK (Homo sapiens) (UniProt P51451)
# ITK (Homo sapiens) = ITK (Homo sapiens) (UniProt Q08881)
# ABL2 (Homo sapiens) [4] = target: ABL2 (Homo sapiens) (UniProt P42684)
# ABL2 (Homo sapiens) [5] = target: ABL2 (Homo sapiens) (UniProt P42684); remark: listed apart in the source
# TNS4 (Homo sapiens) = TNS4 (Homo sapiens) (UniProt Q8IZW8)
# SH2B3 (Homo sapiens) = SH2B3 (Homo sapiens) (UniProt Q9UQQ2)
# PLCG2-NC (Homo sapiens) [6] = target: PLCG2-NC (Homo sapiens) (UniProt P16885)
# PLCG2-NC (Homo sapiens) [7] = target: PLCG2-NC (Homo sapiens) (UniProt P16885); remark: listed apart in the source
# PIK3R3-NC (Homo sapiens) [8] = target: PIK3R3-NC (Homo sapiens) (UniProt Q92569)
# SOCS2 (Homo sapiens) = SOCS2 (Homo sapiens) (UniProt O14508)
# RASA1-N (Homo sapiens) [9] = target: RASA1-N (Homo sapiens) (UniProt P20936)
# RASA1-N (Homo sapiens) [10] = target: RASA1-N (Homo sapiens) (UniProt P20936); remark: listed apart in the source
# SOCS1 (Homo sapiens) = SOCS1 (Homo sapiens) (UniProt O15524)
# SH2D2A (Homo sapiens) = SH2D2A (Homo sapiens) (UniProt Q9NP31)
# ZAP70-NC (Homo sapiens) = ZAP70-NC (Homo sapiens) (UniProt P43403)
# SH2B (Homo sapiens) = SH2B (Homo sapiens) (UniProt Q9NRF2)
# PIK3R1-NC (Homo sapiens) [11] = target: PIK3R1-NC (Homo sapiens) (UniProt P27986)
# GRB10 (Homo sapiens) [12] = target: GRB10 (Homo sapiens) (UniProt Q13322)
# GRB10 (Homo sapiens) [13] = target: GRB10 (Homo sapiens) (UniProt Q13322); remark: listed apart in the source
# FES (Homo sapiens) = FES (Homo sapiens) (UniProt P07332)
# SRC (Homo sapiens) = SRC (Homo sapiens) (UniProt P12931)
# PTPN6-NC (Homo sapiens) = PTPN6-NC (Homo sapiens) (UniProt P29350)
# SHC1-PTB (Homo sapiens) = SHC1-PTB (Homo sapiens) (UniProt P29353)
# YES1 (Homo sapiens) = YES1 (Homo sapiens) (UniProt P07947)
# SHC2-PTB (Homo sapiens) = SHC2-PTB (Homo sapiens) (UniProt P98077)
# SH2D3C (Homo sapiens) = SH2D3C (Homo sapiens) (UniProt Q8N5H7)
# RASA1-NC (Homo sapiens) [14] = target: RASA1-NC (Homo sapiens) (UniProt P20936)
# RASA1-NC (Homo sapiens) [15] = target: RASA1-NC (Homo sapiens) (UniProt P20936); remark: listed apart in the source
# LCK (Homo sapiens) = LCK (Homo sapiens) (UniProt P06239)
# SYK-NC (Homo sapiens) [16] = target: SYK-NC (Homo sapiens) (UniProt P43405); remark: listed apart in the source
# GRB7 (Homo sapiens) [17] = target: GRB7 (Homo sapiens) (UniProt Q14451); remark: listed apart in the source
# PIK3R1-N (Homo sapiens) = PIK3R1-N (Homo sapiens) (UniProt P27986)
# SLA (Homo sapiens) [18] = target: SLA (Homo sapiens) (UniProt Q13239); remark: listed apart in the source
# ABL2 (Homo sapiens) [19] = target: ABL2 (Homo sapiens) (UniProt P42684); remark: listed apart in the source
# PIK3R3-NC (Homo sapiens) [20] = target: PIK3R3-NC (Homo sapiens) (UniProt Q92569); remark: listed apart in the source
# PIK3R3-NC (Homo sapiens) [21] = target: PIK3R3-NC (Homo sapiens) (UniProt Q92569); remark: listed apart in the source
# RASA1-N (Homo sapiens) [22] = target: RASA1-N (Homo sapiens) (UniProt P20936); remark: listed apart in the source
# TENC1 (Homo sapiens) [23] = target: TENC1 (Homo sapiens) (UniProt Q63HR2)
# TENC1 (Homo sapiens) [24] = target: TENC1 (Homo sapiens) (UniProt Q63HR2); remark: listed apart in the source
# PIK3R1-NC (Homo sapiens) [25] = target: PIK3R1-NC (Homo sapiens) (UniProt P27986); remark: listed apart in the source
# PIK3R1-NC (Homo sapiens) [26] = target: PIK3R1-NC (Homo sapiens) (UniProt P27986); remark: listed apart in the source
# PIK3R3-N (Homo sapiens) [27] = target: PIK3R3-N (Homo sapiens) (UniProt Q92569)
# PIK3R3-N (Homo sapiens) [28] = target: PIK3R3-N (Homo sapiens) (UniProt Q92569); remark: listed apart in the source
# PIK3R2-NC (Homo sapiens) = PIK3R2-NC (Homo sapiens) (UniProt O00459)
# PIK3R2-N (Homo sapiens) [29] = target: PIK3R2-N (Homo sapiens) (UniProt O00459)
# PIK3R2-N (Homo sapiens) [30] = target: PIK3R2-N (Homo sapiens) (UniProt O00459); remark: listed apart in the source
# PIK3R3-C (Homo sapiens) = PIK3R3-C (Homo sapiens) (UniProt Q92569)
# Chain of PIK3R1-NC (Homo sapiens) (P27986 328-723): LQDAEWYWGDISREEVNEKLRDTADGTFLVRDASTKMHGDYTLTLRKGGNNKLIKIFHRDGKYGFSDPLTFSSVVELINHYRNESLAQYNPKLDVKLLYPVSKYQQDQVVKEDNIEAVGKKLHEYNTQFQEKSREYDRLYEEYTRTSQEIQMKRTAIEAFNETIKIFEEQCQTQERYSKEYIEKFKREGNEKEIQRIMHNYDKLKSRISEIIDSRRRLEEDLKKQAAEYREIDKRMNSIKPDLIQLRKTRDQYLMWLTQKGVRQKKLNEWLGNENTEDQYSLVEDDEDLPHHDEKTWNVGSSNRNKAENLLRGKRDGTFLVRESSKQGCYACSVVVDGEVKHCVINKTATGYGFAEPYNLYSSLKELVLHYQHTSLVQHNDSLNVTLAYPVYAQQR
# Chain of ABL2 (Homo sapiens) (P42684 168-268): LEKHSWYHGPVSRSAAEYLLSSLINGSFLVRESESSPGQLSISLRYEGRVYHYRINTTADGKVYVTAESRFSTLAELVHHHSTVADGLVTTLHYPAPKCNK
# Chain of RASA1-N (Homo sapiens) (P20936 176-446): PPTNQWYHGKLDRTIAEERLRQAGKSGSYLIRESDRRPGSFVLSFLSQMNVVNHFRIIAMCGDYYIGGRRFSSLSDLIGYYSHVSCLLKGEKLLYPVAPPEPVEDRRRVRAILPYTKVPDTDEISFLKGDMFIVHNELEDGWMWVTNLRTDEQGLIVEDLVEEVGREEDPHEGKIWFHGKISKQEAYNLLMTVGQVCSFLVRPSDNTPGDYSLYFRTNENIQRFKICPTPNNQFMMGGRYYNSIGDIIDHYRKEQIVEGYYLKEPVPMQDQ
# Chain of PIK3R2-N (Homo sapiens) (O00459 325-721): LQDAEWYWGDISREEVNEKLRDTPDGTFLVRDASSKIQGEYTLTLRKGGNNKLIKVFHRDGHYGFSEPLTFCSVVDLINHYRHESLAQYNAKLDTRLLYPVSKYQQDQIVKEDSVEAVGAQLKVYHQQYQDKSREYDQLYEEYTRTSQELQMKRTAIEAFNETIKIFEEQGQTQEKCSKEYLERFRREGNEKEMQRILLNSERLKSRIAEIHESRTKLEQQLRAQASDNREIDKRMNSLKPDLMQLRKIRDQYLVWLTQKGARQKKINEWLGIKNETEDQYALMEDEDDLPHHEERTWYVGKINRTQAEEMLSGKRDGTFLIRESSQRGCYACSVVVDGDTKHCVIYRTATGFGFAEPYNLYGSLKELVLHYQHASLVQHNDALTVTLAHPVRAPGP
# Chain of GRB7 (Homo sapiens) (Q14451 426-532): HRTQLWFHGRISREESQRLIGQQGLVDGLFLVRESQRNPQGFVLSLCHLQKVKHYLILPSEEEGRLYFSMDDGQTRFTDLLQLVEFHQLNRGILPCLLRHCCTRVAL
# Chain of GRB10 (Homo sapiens) (Q13322 488-579): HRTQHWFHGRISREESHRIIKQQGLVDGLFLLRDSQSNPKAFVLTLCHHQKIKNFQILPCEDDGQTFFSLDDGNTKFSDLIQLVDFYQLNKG
# Chain of PLCG2-NC (Homo sapiens) (P16885 527-740): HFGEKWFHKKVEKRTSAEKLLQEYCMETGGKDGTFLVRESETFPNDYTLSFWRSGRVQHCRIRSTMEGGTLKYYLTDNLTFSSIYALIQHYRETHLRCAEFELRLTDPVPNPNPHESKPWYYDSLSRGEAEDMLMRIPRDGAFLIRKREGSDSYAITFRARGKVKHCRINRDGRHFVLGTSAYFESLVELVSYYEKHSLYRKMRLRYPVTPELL
# Chain of RASA1-NC (Homo sapiens) (P20936 176-446): as the sequence (P20936 176-446) above
# Chain of TENC1 (Homo sapiens) (Q63HR2 1135-1252): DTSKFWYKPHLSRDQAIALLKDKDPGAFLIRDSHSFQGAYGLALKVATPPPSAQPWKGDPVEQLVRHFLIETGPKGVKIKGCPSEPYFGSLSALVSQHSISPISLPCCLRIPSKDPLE
# Chain of SLA (Homo sapiens) (Q13239 79-180): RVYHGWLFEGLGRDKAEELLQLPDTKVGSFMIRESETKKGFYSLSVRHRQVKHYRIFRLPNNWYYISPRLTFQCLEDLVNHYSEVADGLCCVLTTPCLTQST
# Chain of PIK3R2-NC (Homo sapiens) (O00459 325-721): as the sequence (O00459 325-721) above
# Chain of SOCS1 (Homo sapiens) (O15524 74-179): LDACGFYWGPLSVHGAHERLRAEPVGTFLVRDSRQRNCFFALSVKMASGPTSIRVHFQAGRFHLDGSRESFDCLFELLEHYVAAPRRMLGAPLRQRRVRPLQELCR
# Chain of SHC1-PTB (Homo sapiens) (P29353 483-583): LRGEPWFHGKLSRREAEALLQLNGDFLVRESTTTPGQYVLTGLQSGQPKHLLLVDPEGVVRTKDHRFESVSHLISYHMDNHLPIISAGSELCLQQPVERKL
# Chain of TNS4 (Homo sapiens) (Q8IZW8 444-561): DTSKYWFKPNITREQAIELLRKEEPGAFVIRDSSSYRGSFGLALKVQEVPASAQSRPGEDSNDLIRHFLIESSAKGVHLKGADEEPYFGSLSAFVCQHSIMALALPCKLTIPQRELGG
# Chain of SH2B3 (Homo sapiens) (Q9UQQ2 359-467): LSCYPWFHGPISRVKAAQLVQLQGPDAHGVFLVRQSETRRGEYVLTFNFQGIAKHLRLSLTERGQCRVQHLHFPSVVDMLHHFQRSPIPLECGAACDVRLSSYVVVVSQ
# Chain of LCK (Homo sapiens) (P06239 122-229): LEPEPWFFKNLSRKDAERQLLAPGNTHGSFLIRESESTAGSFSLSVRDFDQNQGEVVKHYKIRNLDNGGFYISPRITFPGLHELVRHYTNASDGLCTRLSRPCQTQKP
# Chain of BLK (Homo sapiens) (P51451 119-225): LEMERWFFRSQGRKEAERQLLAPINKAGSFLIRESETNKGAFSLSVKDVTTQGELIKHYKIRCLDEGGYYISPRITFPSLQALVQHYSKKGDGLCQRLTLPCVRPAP
# Chain of PIK3R1-N (Homo sapiens) (P27986 328-723): as the sequence (P27986 328-723) above
# Chain of ZAP70-NC (Homo sapiens) (P43403 5-259): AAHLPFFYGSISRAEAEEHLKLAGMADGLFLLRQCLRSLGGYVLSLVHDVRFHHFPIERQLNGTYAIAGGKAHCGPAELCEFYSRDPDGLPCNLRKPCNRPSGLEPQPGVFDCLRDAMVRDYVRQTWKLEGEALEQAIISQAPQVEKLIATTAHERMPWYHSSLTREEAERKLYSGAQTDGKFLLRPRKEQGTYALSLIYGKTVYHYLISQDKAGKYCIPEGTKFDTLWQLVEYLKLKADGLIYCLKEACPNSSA
substance,measurement,setting,value
…pYRALMDEEd,apparent Kd (screen),SYK-NC (Homo sapiens) [1],905 nM
same,apparent Kd (screen),GRB7 (Homo sapiens) [2],755 nM
same,apparent Kd (screen),SLA (Homo sapiens) [3],1600 nM
same,apparent Kd (screen),BLK (Homo sapiens),191 nM
same,apparent Kd (screen),ITK (Homo sapiens),277 nM
same,apparent Kd (screen),ABL2 (Homo sapiens) [4],1500 nM
same,apparent Kd (screen),ABL2 (Homo sapiens) [5],2000 nM
same,apparent Kd (screen),TNS4 (Homo sapiens),2000 nM
same,apparent Kd (screen),SH2B3 (Homo sapiens),1360 nM
same,apparent Kd (screen),PLCG2-NC (Homo sapiens) [6],1390 nM
same,apparent Kd (screen),PLCG2-NC (Homo sapiens) [7],1500 nM
same,apparent Kd (screen),PIK3R3-NC (Homo sapiens) [8],968 nM
same,apparent Kd (screen),SOCS2 (Homo sapiens),2000 nM
same,apparent Kd (screen),RASA1-N (Homo sapiens) [9],709 nM
same,apparent Kd (screen),RASA1-N (Homo sapiens) [10],1060 nM
same,apparent Kd (screen),SOCS1 (Homo sapiens),2000 nM
same,apparent Kd (screen),SH2D2A (Homo sapiens),2000 nM
same,apparent Kd (screen),ZAP70-NC (Homo sapiens),1650 nM
same,apparent Kd (screen),SH2B (Homo sapiens),2000 nM
same,apparent Kd (screen),PIK3R1-NC (Homo sapiens) [11],239 nM
same,apparent Kd (screen),GRB10 (Homo sapiens) [12],1690 nM
same,apparent Kd (screen),GRB10 (Homo sapiens) [13],2000 nM
same,apparent Kd (screen),FES (Homo sapiens),1230 nM
same,apparent Kd (screen),SRC (Homo sapiens),1140 nM
same,apparent Kd (screen),PTPN6-NC (Homo sapiens),2000 nM
same,apparent Kd (screen),SHC1-PTB (Homo sapiens),1150 nM
same,apparent Kd (screen),YES1 (Homo sapiens),724 nM
same,apparent Kd (screen),SHC2-PTB (Homo sapiens),978 nM
same,apparent Kd (screen),SH2D3C (Homo sapiens),2000 nM
same,apparent Kd (screen),RASA1-NC (Homo sapiens) [14],1650 nM
same,apparent Kd (screen),RASA1-NC (Homo sapiens) [15],1380 nM
same,apparent Kd (screen),LCK (Homo sapiens),2000 nM
…pYEYMNRQR,apparent Kd (screen),SYK-NC (Homo sapiens) [16],1300 nM
same,apparent Kd (screen),GRB7 (Homo sapiens) [17],999 nM
same,apparent Kd (screen),PIK3R1-N (Homo sapiens),296 nM
same,apparent Kd (screen),SLA (Homo sapiens) [18],2000 nM
same,apparent Kd (screen),ABL2 (Homo sapiens) [19],357 nM
same,apparent Kd (screen),PIK3R3-NC (Homo sapiens) [20],151 nM
same,apparent Kd (screen),PIK3R3-NC (Homo sapiens) [21],122 nM
same,apparent Kd (screen),RASA1-N (Homo sapiens) [22],1040 nM
same,apparent Kd (screen),TENC1 (Homo sapiens) [23],1710 nM
same,apparent Kd (screen),TENC1 (Homo sapiens) [24],1620 nM
same,apparent Kd (screen),PIK3R1-NC (Homo sapiens) [25],33 nM
same,apparent Kd (screen),PIK3R1-NC (Homo sapiens) [26],43 nM
same,apparent Kd (screen),PIK3R3-N (Homo sapiens) [27],157 nM
same,apparent Kd (screen),PIK3R3-N (Homo sapiens) [28],171 nM
same,apparent Kd (screen),PIK3R2-NC (Homo sapiens),99 nM
same,apparent Kd (screen),PIK3R2-N (Homo sapiens) [29],151 nM
same,apparent Kd (screen),PIK3R2-N (Homo sapiens) [30],199 nM
same,apparent Kd (screen),PIK3R3-C (Homo sapiens),130 nM
